Values of other authors as cited in PMC7509490.

Target: G-actin (Oryctolagus cuniculus) (UniProt P68135)

Kd: 200 nM
Substance: Profilin (from UniProt P07274)
